The source of these data is US20100298542A1 (Chugai, published 2010).

Substitutions are numbered along the chain they refer to.

Experiment [1] deals with T1, soluble human FcRn (complex of FcRn extracellular domain and β2-microglobulin) (human, UniProt P55899 24-290; P16213 21-119).
T1 construct: The stated ranges are those of the expressed constructs and contain the signal regions; Expressed in HEK293H cells, purified on IgG Sepharose and HiTrap Q; also called hFcRn
The experiment can be described thus: SPR (Biacore 3000), antibody captured on Protein L or anti-human kappa antibody, human FcRn as analyte, pH 6.0, steady state affinity. The method, then: (§1) The binding to human FcRn was assessed using Biacore 3000. […] Human FcRn was then injected and the binding of the human FcRn to antibody was assessed. The affinity was computed using BIAevaluation Software. The obtained sensorgram was used to calculate the amount of hFcRn bound to the antibody immediately before the end of human FcRn injection. The affinity of the antibody for human FcRn was calculated by fitting with the steady state affinity method.

In experiment [2] the target is T1, soluble human FcRn (complex of FcRn …). The experiment can be described thus: SPR (Biacore 3000), human FcRn, pH 6.0, steady state affinity. The method, then:
as §1

Experiment [3] has the same target. Briefly: SPR (Biacore 3000), method of Example 6: captured antibody, human FcRn as analyte, pH 6.0, steady state affinity. As to the method:
as §1

T1 sequence (P55899 24-290 limits assumed, chain 1 of 2): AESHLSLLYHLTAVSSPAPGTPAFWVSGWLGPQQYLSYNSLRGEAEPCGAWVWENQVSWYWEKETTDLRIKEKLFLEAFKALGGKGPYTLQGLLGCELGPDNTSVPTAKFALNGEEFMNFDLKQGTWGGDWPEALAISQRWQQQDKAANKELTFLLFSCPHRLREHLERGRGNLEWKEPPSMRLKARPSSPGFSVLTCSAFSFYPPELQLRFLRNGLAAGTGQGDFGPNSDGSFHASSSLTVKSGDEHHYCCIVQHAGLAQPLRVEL
T1 sequence (P16213 21-119 limits assumed, chain 2 of 2): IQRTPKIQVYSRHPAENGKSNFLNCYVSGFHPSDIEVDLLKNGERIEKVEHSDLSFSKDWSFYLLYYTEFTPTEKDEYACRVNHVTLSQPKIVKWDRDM

B1: WT-M14ΔGK (humanized PM-1 variable region, M14ΔGK constant region) (antibody)
heavy: QVQLQESGPGLVRPSQTLSLTCTVSGYSITSDHAWSWVRQPPGRGLEWIGYISYSGITTYNPSLKSRVTMLRDTSKNQFSLRLSSVTAADTAVYYCARSLARTTAMDYWGQGSLVTVSSASTKGPSVFPLAPSSKSTSGGTAALGCLVKDYFPEPVTVSWNSGALTSGVHTFPAVLQSSGLYSLSSVVTVPSSNFGTQTYTCNVDHKPSNTKVDKTVERKSCVECPPCPAPPVAGPSVFLFPPKPKDTLMISRTPEVTCVVVDVSHEDPEVQFNWYVDGVEVHNAKTKPREEQFNSTFRVVSVLTVVHQDWLNGKEYKCKVSNKGLPSSIEKTISKAKGQPREPQVYTLPPSREEMTKNQVSLTCLVKGFYPSDIAVEWESNGQPENNYKTTPPVLDSDGSFFLYSKLTVDKSRWQQGNVFSCSVMHEALHNHYTQKSLSLSP
light: DIQMTQSPSSLSASVGDSVTITCQASQDISSYLNWYQQKPGKAPELLIYYGSELHSGVPSRFSGSGSGTDFTFTISSLEAEDAATYYCQQGNSLPYTFGQGTKVEIE
notes: copies: 2 + 2
B1 gave a Kd in experiment [1] of 1.85 µM.

B2: WT-M58 (humanized PM-1 variable region, M58 constant region) (antibody)
heavy: B1 heavy with H266Q, S328A, S329P, A337T, R353Q, V395M, Q417E
light: B1 light
notes: copies: 2 + 2
For B2, the “binding as a multiple of that of WT-IgG1” value in experiment [2] was ~1.4 times that of WT-IgG1. The dissociation constant (Kd) was 1.03 µM in experiment [3] and 1.17 µM in experiment [1].

B3: WT-M44 (humanized PM-1 antibody, IgG1 constant region with alanine at position 434, EU numbering) (antibody)
heavy: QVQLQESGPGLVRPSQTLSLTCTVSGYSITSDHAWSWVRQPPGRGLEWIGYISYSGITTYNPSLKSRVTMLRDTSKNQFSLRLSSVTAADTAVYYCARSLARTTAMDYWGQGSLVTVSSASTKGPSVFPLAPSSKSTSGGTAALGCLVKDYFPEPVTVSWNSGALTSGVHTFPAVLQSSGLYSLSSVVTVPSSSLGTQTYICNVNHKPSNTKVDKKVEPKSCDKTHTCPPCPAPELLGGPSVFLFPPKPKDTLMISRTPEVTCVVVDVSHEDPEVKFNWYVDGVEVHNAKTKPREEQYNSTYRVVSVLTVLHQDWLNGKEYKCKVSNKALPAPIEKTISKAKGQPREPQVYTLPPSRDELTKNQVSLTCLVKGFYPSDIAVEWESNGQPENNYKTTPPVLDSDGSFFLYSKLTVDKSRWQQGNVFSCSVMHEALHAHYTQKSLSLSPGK
light: B1 light
notes: copies: 2 + 2
Take B3: the “binding as a multiple of that of WT-IgG1” value in experiment [2] was ~2.7 times that of WT-IgG1. This molecule also gave a Kd in experiment [1] of 0.59 µM.

B4: WT-M73 (humanized PM-1 variable region, M73 constant region) (antibody)
heavy: B1 heavy with H266Q, S328A, S329P, A337T, R353Q, V395M, Q417E, N432A
light: B1 light
notes: copies: 2 + 2
For B4, the “binding as a multiple of that of WT-IgG1” value in experiment [2] was ~3.8 times that of WT-IgG1. For the same molecule, in experiment [1], the dissociation constant Kd was 0.42 µM.
